The text below walks through data of patent US20070036810A1, “Cyclic amp response element activator proteins and uses related thereto” (priority 2003, published 2007).

“Also recorded” adds a separate entry of the source.

The subject of assay [1] is pCRE-Luc reporter (cyclic AMP response element). The assay is described as follows: pCRE-Luc reporter assay of CREAP1 deletion fragments in Hela cells. It is filed as cell-based. Conditions: Flag-CREAP1 deletion constructs co-transfected with pCRE-Luc in Hela cells; Dual-Glo Luciferase 40 hrs after transfection. How it is done:
CREAP1 protein amino acids 1-170, 1-356, […], 1-580 and 170-650 are inserted into pFlag-CMV4 expression vector (Sigma, St. Louis, Mo.) by utilizing PCR strategy familiar to one of skill in the art. 10^4 Hela cells are split into each well of 96 well tissue culture plates. Cells are transfected 16 hours later with 100 ng of pCRE-Luc reporter construct, 30 ng of Renilla luciferase control plasmid together with 100 ng of pCMVSPORT6, pCMVSPORT-CREAP1 and different Flag-CREAP1 deletion fusion constructs respectively. Transfection is done with Fugene6 reagent (Roche Applied Biosciences) following the manufacturer's instructions. A Dual-Glo Luciferase assay (Promega) is conducted 40 hrs after transfection. Firefly luciferase counts are normalized to Renilla luciferase and plotted.
To dissect the functional domains within the CREAP1 molecule, CREAP1 protein fragments of amino acids 1-170, 1-356, 1-494, 1-580 and 170-650 were subcloned into pFlag-CMV4 vector by utilizing PCR based strategy and tested for function in a Dual Glo Luciferase assay as described above.

For assay [2], the target named is T1, endogenous CREB1 (Homo sapiens, UniProt P16220).
T1 construct: endogenous in cells; host or cells: HEK293
T1 sequence (P16220 whole entry): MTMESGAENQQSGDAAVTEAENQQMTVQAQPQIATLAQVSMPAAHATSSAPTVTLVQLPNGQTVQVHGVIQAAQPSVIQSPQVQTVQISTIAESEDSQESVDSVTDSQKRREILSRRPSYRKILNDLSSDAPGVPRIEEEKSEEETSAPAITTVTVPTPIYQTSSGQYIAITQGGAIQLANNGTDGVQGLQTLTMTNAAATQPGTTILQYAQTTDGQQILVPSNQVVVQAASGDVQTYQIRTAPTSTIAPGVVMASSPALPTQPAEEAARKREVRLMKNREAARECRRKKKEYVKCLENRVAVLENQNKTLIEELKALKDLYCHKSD
The assay can be described thus: Immuno-precipitation of FLAG-tagged CREAP1 variants and Western blot against CREB in HEK293 cells. It is filed as binding. Conditions: M2-agarose immuno-precipitation, Western blot against CREB. Here is the method:
To determine if CREAP1 can interact directly with CREB, K1 and K5 variants of CREAP1 (see Table 1) were transfected into HEK293 cell grown in 100 mm dishes (Falcon) using Fugene6 reagent (Roche Applied Science) according to the protocol provided by the manufacturer. 40 hours after transfection, cells were scraped from the plates in PBS and lysed in 800 μl of Low Stringency buffer containing: 10 mM HEPES pH 7.6, 250 mM NaCl, 5 mM EDTA, 1 mM DTT, 0.1% NP-40 and freshly dissolved protease inhibitors. Immuno-precipitation was carried out using M2-agarose beads (Sigma). Precipitated proteins were separated on 4-20% of SDS-PAGE (Invitrogen) and transferred to nitrocellulose membrane (Invitrogen). Western blot were performed using antibody against CREB (Cell Signaling Technology). As a negative control expression construct encoding FLAG-tagged human histone deacetylase 1 (HDAC1) was used.

B1: K1: CREAP1 fragment, amino acids 1-170, SEQ ID NO 32, Flag fusion (protein)
chain: MATSNNPRKFSEKIALHNQKQAEETAAFEEVMKDLSLTRAARLQLQKSQYLQLGPSRGQYYGGSLPNVNQIGSGTMDLPFQPSGFLGEALAAAPVSLTPFQSSGLDTSRTTRHHGLVDRVYRERGRLGSPHRRPLSVDKHGRQADSCPYGTMYLSPPADTSWRRTNSDSA
modifications: Flag tag; human
In the case of B1, the Activity result in assay [1] is given as “not sufficient for its function; also recorded: Inactive”. The “association with endogenous CREB1” value in assay [2] is recorded as “associated with endogenous CREB1”.
